What was measured:
Assay in all cases: cell-based or functional assay
[1] = biological target: JR-CSF pseudovirus (HIV-1 Env on the virions) (HIV-1) (UniProt P20871)
[2] = biological target: JR-FL (E168K) pseudovirus Env (HIV-1)
[3] = biological target: JR-CSF (I309A) pseudovirus Env (HIV-1) (UniProt P20871)
[4] = biological target: JR-CSF (Y318A) pseudovirus Env (HIV-1) (UniProt P20871)
[5] = biological target: ADA pseudovirus Env (HIV-1)
[6] = biological target: 92RW020 pseudovirus Env (HIV-1)

Binder	IC50 (ug/ml), pseudovirus neutralization, TZM-bl assay [1] [µg/mL]	IC50 (ug/ml), pseudovirus neutralization, TZM-bl assay [2] [µg/mL]	IC50 (ug/ml), pseudovirus neutralization, TZM-bl assay [3] [µg/mL]	IC50 (ug/ml), pseudovirus neutralization, TZM-bl assay [4] [µg/mL]	IC50 (ug/ml), pseudovirus neutralization, TZM-bl assay [5] [µg/mL]	IC50 (ug/ml), pseudovirus neutralization, TZM-bl assay [6] [µg/mL]
1503_H05 (PG16) (antibody, V domains shown) VH: QEKLVESGGGVVQPGGSLRLSCLASGFTFHKYGMHWVRQAPGKGLEWVALISDDGMRKYHSDSMWGRVTISRDNSKNTLYLQFSSLKVEDTAMFFCAREAGGPIWHDDVKYYDFNDGYYNYHYMDVWGKGTIVTVSS VL: QSALTQPASVSGSPGQTITISCNGTRSDVGGFDSVSWYQQSPGKAPKVMVFDVSHRPSGISNRFSGSKSGNTASLTISGLHIEDEGDYFCSSLTDRSHRIFGGGTKVTVLG	0.001	0.002	> 1	> 1	0.003	0.02
1469_M23 (PG16) (antibody, V domains shown) VH: QEKLVESGGGVVQPGGSLRLSCLASGFTFHKYGMHWVRQAPGKGLEWVALISDDGMRKYHSDSMWGRVTISRDNSKNTLYLQFSSLKVEDTAMFFCAREAGGPIWHDDVKYYDFNDGYYNYHYMDVWGKGTTVTVSS VL: QSALTQPASVSGSPGQTITISCNGTRSDVGGFDSVSWYQQSPGRAPKVMVFDVSHRPSGISNRFSGSKSGNTASLTISGLHIEDEGDYFCSSLTDRSHRIFGGGTKLTVLG	0.002	0.005	> 1	> 1	0.005	0.05
1456_A12 (PG16) (antibody, V domains shown) VH: HEQLVEAGGGVVQPGGSLRLSCLASGFTFHKYGMHWVRQAPGKGLEWVALISDDGMRKYHSDSMWGRVTISRDNSKNTLYLQFSSLRVEDTAMFFCAREAGGPIWHDDVKYYDFNDGYYNYHYMDVWGKGTKVTVSS VL: QSALTQPASVSGSPGQTITISCNGTSRDVGGFDSVSWYQQSPGKAPKVMVFDVSHRPSGMSNRFSGSKSGNTASLTISGLHIEDEGDYFCSSLTDRSHRIFGGGTKLTVLG	0.001	0.003	> 1	> 1	0.005	0.05
1489_I13 (PG16) (antibody, V domains shown) VH: QEQLLESGGGVVQPGGSLRLSCLASGFTFHKYGMHWVRQAPGKGLEWVALISDDGMRKYHSNSMWGRVTISRDNSKNTLYLQFSSLKVEDTAMFFCAREAGGPIWHDDVKYYDFNDGYYNYHYMDVWGKGTTVTVSS VL: QSALTQPASVSGSPGQTITISCNGTSSDVGGFDSVSWYQQSPGKAPKVMVFDVSHRPSGISNRFSGSKSGNTASLTISGLHIEDEGDYFCSSLTDRSHRIFGGGTKVTVLG	0.002	0.005	> 1	> 1	0.008	0.03

— US20110044994A1
